# T1: human IL1RAP on cells (endogenous) (human, UniProt Q9NPH3 21-570)
# T1 sequence (looked up): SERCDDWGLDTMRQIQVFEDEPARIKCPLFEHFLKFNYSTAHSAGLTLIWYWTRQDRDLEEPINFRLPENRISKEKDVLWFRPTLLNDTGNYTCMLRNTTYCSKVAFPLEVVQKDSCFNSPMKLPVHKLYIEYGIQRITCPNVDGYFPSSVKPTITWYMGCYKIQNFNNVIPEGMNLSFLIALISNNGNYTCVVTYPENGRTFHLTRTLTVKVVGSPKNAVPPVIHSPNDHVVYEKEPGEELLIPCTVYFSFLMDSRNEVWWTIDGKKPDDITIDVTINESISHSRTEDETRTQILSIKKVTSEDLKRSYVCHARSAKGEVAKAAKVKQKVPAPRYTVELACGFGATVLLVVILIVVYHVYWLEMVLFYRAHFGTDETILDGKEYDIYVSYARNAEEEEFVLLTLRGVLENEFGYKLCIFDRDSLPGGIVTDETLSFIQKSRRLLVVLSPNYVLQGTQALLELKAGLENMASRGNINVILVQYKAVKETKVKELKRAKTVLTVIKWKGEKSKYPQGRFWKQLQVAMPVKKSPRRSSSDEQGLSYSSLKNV
# T2: mouse IL1RAP ECD displayed on HEK-293F cells (pDisplay) (mouse, UniProt Q61730 21-367)
# T2 sequence: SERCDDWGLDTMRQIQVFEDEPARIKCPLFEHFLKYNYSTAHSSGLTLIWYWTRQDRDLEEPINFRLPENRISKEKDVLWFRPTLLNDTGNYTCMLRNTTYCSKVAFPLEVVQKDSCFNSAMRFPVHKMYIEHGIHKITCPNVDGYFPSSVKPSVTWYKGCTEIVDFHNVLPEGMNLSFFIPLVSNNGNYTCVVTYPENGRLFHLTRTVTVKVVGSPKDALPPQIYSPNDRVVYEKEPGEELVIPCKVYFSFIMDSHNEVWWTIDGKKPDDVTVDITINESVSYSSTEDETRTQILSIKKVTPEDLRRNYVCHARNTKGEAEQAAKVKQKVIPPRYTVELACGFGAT
# T3: cyno IL1RAP ECD displayed on HEK-293F cells (pDisplay) (cynomolgus monkey, UniProt P59822 21-367 (rhesus entry))
# T3 sequence: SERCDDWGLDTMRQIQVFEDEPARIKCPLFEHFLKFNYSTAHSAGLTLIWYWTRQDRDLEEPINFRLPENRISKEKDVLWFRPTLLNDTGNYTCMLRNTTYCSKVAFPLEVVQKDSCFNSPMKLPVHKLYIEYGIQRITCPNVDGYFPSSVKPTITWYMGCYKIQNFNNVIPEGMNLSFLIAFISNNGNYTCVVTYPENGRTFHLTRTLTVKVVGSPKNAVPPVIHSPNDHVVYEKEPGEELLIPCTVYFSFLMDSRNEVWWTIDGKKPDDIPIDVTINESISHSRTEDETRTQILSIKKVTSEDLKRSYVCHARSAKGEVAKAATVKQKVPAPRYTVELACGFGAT
# B1: IC3B19 (bispecific antibody, human IgG4 S228P, kappa, lambda, F234A L235A)
# heavy 1: EVQLVESGGGLVQPGGSLRLSCAASGFTFNTYAMNWVRQAPGKGLEWVARIRSKYNNYATYYAASVKGRFTISRDDSKNSLYLQMNSLKTEDTAVYYCARHGNFGNSYVSWFAYWGQGTLVTVSSASTKGPSVFPLAPCSRSTSESTAALGCLVKDYFPEPVTVSWNSGALTSGVHTFPAVLQSSGLYSLSSVVTVPSSSLGTKTYTCNVDHKPSNTKVDKRVESKYGPPCPPCPAPEAAGGPSVFLFPPKPKDTLMISRTPEVTCVVVDVSQEDPEVQFNWYVDGVEVHNAKTKPREEQFNSTYRVVSVLTVLHQDWLNGKEYKCKVSNKGLPSSIEKTISKAKGQPREPQVYTLPPSQEEMTKNQVSLTCLVKGFYPSDIAVEWESNGQPENNYKTTPPVLDSDGSFLLYSKLTVDKSRWQEGNVFSCSVMHEALHNHYTQKSLSLSLGK
# light 1: QTVVTQEPSLTVSPGGTVTLTCRSSTGAVTTSNYANWVQQKPGQAPRGLIGGTNKRAPGTPARFSGSLLGGKAALTLSGVQPEDEAEYYCALWYSNLWVFGGGTKLTVLGQPKAAPSVTLFPPSSEELQANKATLVCLISDFYPGAVTVAWKADSSPVKAGVETTTPSKQSNNKYAASSYLSLTPEQWKSHRSYSCQVTHEGSTVEKTVAPTECS
# heavy 2: not shown
# light 2: DIQLTQSPSFLSASVGDRVTITCRASQGISSYLAWYQQKPGKAPKLLIYAASTLQSGVPSRFSGSGSGTEFTLTISSLQPEDFATYYCQQVNSYPLTFGGGTKVEIKRTVAAPSVFIFPPSDEQLKSGTASVVCLLNNFYPREAKVQWKVDNALQSGNSQESVTEQDSKDSTYSLSSTLTLSKADYEKHKVYACEVTHQGLSSPVTKSFNRGEC
# notes: IgG4-PAA, Fab arm exchange; also called IAPB57 x CD3B219; IL1RAP x CD3
# How the values were obtained:
# [1] = target: T1, human IL1RAP on cells (endogenous); assay: cell-based or functional assay
# [2] = target: T2, mouse IL1RAP ECD displayed on HEK-293F …; assay: MSD cell binding, HEK-293F Mouse clone 5 cells displaying mouse IL1RAP ECD
# Procedure: (§1) Cells were immobilized and IL1RAP antibody samples were assayed in triplicate. Briefly, expression supernatants of purified IL1RAP antibodies were normalized to 10 μg/mL. 5000 cells per well were plated into a 384 well plate (MA6000, cat. L21XB, MSD) and allowed to adhere for 2 hr. Cells were then blocked with 20% FBS in PBS (Gibco) for 15 mins. Antibody supernatants were then added and left at RT for 1 hr. Cells were washed 3 times with PBS and a ruthenium labeled secondary antibody (Mesoscale Discovery) was then added at 2 μg/mL and incubated for 1 hour at room temperature. A further washing step was then applied and 35 μL per well of 2×MSD Read buffer T (surfactant free) was then added and incubated for 5-30 minutes for detection. Plates were then read using Sector Imager 2400 (MSD). Data was normalized to controls and graphed using GraphPad Prism Version 5. A positive binder was determined to be a hit with a signal 3× greater than parental cell line background.
# (§2) The MSD cell binding assay described in Example 4 was used to assess IL1RAP binding.
# human FcRn = target: T4, human FcRn (human, UniProt P55899 24-297; P61769 21-119, limits assumed); assay: AlphaScreen competition, human FcRn (n=1); displaced: biotinylated control mAb B21M WT IgG1 (m27); pH 6.0
# T4 construct: GST-tagged
# From the text: Measurements were made using an AlphaScreen™ assay (Amplified Luminescent Proximity Homogeneous Assay (ALPHA), PerkinElmer, Wellesley, Mass.), a bead-based luminescent proximity assay. Laser excitation of a donor bead excites oxygen, which if sufficiently close to the acceptor bead generates a cascade of chemiluminescent events, ultimately leading to fluorescence emission at 520-620 nm.
# [3] = target: T1, human IL1RAP on cells (endogenous); assay: cell-based or functional assay; remark: listed apart in the source
# [4] = target: T3, cyno IL1RAP ECD displayed on HEK-293F …; assay: MSD cell binding, HEK-293F Cyno (clone CB8) cells displaying cyno IL1RAP ECD
# Procedure: as §1, §2
# [5] = target: T1, human IL1RAP on cells (endogenous); assay: cell-based or functional assay; remark: listed apart in the source
binder,measurement,setting,value
B1,"Average EC50, SKNO-1 cytotoxicity in whole blood, 24 hour",[1],1.82 nM
same,"Average EC50, SKNO-1 cytotoxicity in whole blood, 48 hour",[1],1.4 nM
same,"EC50, SKNO-1 cytotoxicity in whole blood, donor 00201, 24 hour",[1],3.58 nM
same,"EC50, SKNO-1 cytotoxicity in whole blood, donor 00201, 48 hour",[1],0.703 nM
same,"EC50, SKNO-1 cytotoxicity in whole blood, donor 00263, 24 hour",[1],1.5 nM
same,"EC50, SKNO-1 cytotoxicity in whole blood, donor 00263, 48 hour",[1],0.768 nM
same,"EC50, SKNO-1 cytotoxicity in whole blood, donor 27050, 24 hour",[1],1.38 nM
same,"EC50, SKNO-1 cytotoxicity in whole blood, donor 27050, 48 hour",[1],3.36 nM
same,"EC50, SKNO-1 cytotoxicity in whole blood, donor 27060, 24 hour",[1],1.88 nM
same,"EC50, SKNO-1 cytotoxicity in whole blood, donor 27060, 48 hour",[1],1.3 nM
same,"EC50, SKNO-1 cytotoxicity in whole blood, donor 27067, 24 hour",[1],0.912 nM
same,"EC50, SKNO-1 cytotoxicity in whole blood, donor 27067, 48 hour",[1],0.647 nM
same,"EC50, SKNO-1 cytotoxicity in whole blood, donor 32771, 24 hour",[1],1.68 nM
same,"EC50, SKNO-1 cytotoxicity in whole blood, donor 32782, 48 hour",[1],1.62 nM
same,binding result,[2],no binding (tested: 100 µg/mL)
same,IC50 (read off the curve),human FcRn,~200 nM
same,"EC50, caspase area/well AUC, Calu-3 with T cells, 72 h",[3],0.716 nM
same,"EC50, caspase area/well AUC, DU145 with T cells, 72 h",[3],0.445 nM
same,"EC50, caspase area/well AUC, H196 with T cells, 72 h",[3],0.019 nM
same,"EC50, caspase area/well AUC, H226 with T cells, 72 h",[3],0.134 nM
same,"EC50, caspase area/well AUC, H716 with T cells, 72 h",[3],0.004 nM
same,"EC50, caspase area/well AUC, H1975 with T cells, 72 h",[3],0.013 nM
same,"EC50, caspase area/well AUC, H2172 with T cells, 72 h",[3],0.039 nM
same,"EC50, caspase area/well AUC, H2228 with T cells, 72 h",[3],0.043 nM
same,"EC50, caspase area/well AUC, LNCAP with T cells, 72 h",[3],0.039 nM
same,"EC50, caspase area/well AUC, PC3 with T cells, 72 h",[3],0.102 nM
same,"EC50, caspase area/well AUC, Panc0213 with T cells, 72 h",[3],0.192 nM
same,"EC50, caspase area/well AUC, Panc0327 with T cells, 72 h",[3],0.181 nM
same,"EC50, caspase area/well AUC, SKMES-1 with T cells, 72 h",[3],0.031 nM
same,"EC50, caspase area/well AUC, SW1271 with T cells, 72 h",[3],0.078 nM
same,EC50 (read off the curve),[4],~1 µg/mL
same,"Average EC50, T-cell mediated cytotoxicity, ALL-SIL",[5],0.004 nM
same,"Average EC50, T-cell mediated cytotoxicity, HPB-ALL",[5],0.008 nM
same,"Average EC50, T-cell mediated cytotoxicity, LAMA-84",[5],0.001 nM
same,"Average EC50, T-cell mediated cytotoxicity, MEG-01",[5],0.002 nM

# From patent publication US20190270826A1 (Janssen / Centocor, published 2019)
